In patent US20200262877A1, “ION CHANNEL-BINDING PEPTIDES AND METHODS OF USE THEREOF” (priority 2017, published 2020):

Experiments:
[1] = target: T1, 5HT3a (Homo sapiens, UniProt P46098); assay: Ion channel panel (IonWorks Barracuda): 5HT3a; type: cell-based
T1 construct: host or cells: HEK293 or CHO
T1 sequence (P46098 whole entry, looked up): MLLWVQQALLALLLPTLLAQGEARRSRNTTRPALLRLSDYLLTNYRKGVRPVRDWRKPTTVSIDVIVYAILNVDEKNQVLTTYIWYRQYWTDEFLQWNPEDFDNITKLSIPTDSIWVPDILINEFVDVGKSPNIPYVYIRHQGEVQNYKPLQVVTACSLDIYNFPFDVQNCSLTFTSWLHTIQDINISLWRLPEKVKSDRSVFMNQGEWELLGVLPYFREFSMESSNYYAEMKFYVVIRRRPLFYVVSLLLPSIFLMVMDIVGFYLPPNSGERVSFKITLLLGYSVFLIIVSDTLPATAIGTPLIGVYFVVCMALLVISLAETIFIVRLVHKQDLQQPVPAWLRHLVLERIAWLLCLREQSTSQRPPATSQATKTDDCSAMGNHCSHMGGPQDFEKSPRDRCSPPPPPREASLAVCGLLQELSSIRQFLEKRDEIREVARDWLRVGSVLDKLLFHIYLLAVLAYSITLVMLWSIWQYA
Outline: (§1)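 Peptides were tested in duplicate at final 20 μM and 200 nM, with concentration set by amino acid analysis, in HEPES-buffered saline. They were applied for at least 5 min to HEK293 or CHO cells transfected with each channel. Currents were expressed as % inhibition, 1-(Ipeptide/Icontrol)×100, or % activation, Ipeptide/Icontrol×100, against a channel-matched reference compound.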

[2] = target: T2, α3β4 (Homo sapiens, UniProt P30926+P32297); assay: Ion channel panel (IonWorks Barracuda): α3β4; type: cell-based; conditions: 100% = no change, <100% = inhibition
T2 construct: host or cells: HEK293 or CHO
Outline: as §1

[3] = target: T3, α4β2 (Homo sapiens, UniProt P17787+P43681); assay: Ion channel panel (IonWorks Barracuda): α4β2; type: cell-based; conditions: 100% = no change, <100% = inhibition
T3 construct: host or cells: HEK293 or CHO
Outline: as §1

[4] = target: T4, Cav2.1 (Homo sapiens, UniProt O00555); assay: cell-based; conditions: 100% = no change, <100% = inhibition
T4 construct: host or cells: HEK293 or CHO
Outline: as §1

[5] = target: T5, Cav2.2 (Homo sapiens, UniProt Q00975); assay: cell-based; conditions: 100% = no change, <100% = inhibition
T5 construct: host or cells: HEK293 or CHO
Outline: as §1

[6] = target: T6, Kv2.1 (Homo sapiens, UniProt Q14721); assay: cell-based; conditions: 100% = no change, <100% = inhibition
T6 construct: host or cells: HEK293 or CHO
Outline: as §1

[7] = tested on: GABA; assay: Ion channel panel (IonWorks Barracuda): GABA; type: cell-based; conditions: 100% = no change, <100% = inhibition
Outline: as §1

[8] = target: Nav1.5 (Homo sapiens, UniProt Q14524); assay: in vitro; conditions: 100% = no change; for Activity of Nav1.5 with peptide, expressed as a percentage of the reference compound: peptide at 0.2 μM; for Activity of Nav1.5 with peptide (percentage of the reference compound): peptide at 20 μM
Nav1.5, sequence (Q14524 whole entry): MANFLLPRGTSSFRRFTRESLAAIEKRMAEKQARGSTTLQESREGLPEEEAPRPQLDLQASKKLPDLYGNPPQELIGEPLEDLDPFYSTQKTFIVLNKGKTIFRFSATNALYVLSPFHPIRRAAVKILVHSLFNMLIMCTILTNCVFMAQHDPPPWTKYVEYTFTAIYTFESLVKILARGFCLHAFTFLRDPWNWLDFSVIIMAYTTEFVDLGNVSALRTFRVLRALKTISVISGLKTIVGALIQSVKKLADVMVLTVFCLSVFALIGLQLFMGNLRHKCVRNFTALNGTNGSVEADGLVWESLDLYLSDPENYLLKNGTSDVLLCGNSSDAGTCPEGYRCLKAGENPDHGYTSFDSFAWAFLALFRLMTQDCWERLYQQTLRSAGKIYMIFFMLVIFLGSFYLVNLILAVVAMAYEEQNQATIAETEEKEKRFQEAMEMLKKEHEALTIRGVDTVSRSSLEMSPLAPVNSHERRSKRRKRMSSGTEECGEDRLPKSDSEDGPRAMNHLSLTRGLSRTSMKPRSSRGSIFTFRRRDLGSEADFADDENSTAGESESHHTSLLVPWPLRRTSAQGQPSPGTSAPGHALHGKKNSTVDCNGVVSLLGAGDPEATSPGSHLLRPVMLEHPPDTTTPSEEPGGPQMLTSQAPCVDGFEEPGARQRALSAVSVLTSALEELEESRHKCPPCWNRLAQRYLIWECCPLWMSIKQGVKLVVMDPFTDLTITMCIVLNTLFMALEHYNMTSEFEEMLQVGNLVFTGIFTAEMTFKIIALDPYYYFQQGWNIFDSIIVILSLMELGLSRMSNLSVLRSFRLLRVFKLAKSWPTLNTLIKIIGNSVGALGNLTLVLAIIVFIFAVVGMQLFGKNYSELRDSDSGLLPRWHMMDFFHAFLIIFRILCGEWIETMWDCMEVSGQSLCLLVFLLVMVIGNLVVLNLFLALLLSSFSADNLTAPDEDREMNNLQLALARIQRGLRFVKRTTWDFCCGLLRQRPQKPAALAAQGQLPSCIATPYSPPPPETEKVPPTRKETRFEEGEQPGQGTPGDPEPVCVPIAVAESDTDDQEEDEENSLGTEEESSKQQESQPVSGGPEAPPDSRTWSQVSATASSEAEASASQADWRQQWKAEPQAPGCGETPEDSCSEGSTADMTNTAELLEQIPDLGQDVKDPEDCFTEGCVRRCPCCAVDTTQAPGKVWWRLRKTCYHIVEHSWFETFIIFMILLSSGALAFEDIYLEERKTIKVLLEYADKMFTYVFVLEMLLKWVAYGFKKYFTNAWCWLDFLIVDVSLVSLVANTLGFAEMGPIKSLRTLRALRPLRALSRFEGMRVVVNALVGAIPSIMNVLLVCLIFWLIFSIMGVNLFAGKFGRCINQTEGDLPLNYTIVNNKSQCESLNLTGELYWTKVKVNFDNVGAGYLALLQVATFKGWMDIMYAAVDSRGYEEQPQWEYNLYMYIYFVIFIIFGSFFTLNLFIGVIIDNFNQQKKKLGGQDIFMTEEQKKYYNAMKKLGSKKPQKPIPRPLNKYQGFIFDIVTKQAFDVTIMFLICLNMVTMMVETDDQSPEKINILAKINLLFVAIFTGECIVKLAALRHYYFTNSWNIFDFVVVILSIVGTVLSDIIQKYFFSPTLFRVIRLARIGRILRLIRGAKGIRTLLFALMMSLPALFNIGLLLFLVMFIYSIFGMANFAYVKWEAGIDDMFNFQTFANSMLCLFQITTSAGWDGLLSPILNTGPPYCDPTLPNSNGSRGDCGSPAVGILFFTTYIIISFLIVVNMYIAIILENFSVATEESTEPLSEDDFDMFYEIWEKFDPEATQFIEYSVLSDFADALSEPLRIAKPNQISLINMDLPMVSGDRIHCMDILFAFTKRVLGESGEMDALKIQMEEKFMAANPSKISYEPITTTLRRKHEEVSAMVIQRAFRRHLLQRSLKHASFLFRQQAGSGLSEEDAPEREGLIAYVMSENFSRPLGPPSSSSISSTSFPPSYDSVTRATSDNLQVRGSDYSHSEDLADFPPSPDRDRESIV
Outline: as §1

[9] = target: hERG (Homo sapiens, UniProt Q12809); assay: in vitro; conditions: 100% = no change, <100% = inhibition
Outline: as §1

[10] = target: T7, Kir2.1 (Homo sapiens, UniProt P63252); assay: Ion channel panel (IonWorks Barracuda): Kir2.1; type: cell-based; conditions: 100% = no change, <100% = inhibition
T7 construct: host or cells: HEK293 or CHO
T7 sequence (P63252 whole entry): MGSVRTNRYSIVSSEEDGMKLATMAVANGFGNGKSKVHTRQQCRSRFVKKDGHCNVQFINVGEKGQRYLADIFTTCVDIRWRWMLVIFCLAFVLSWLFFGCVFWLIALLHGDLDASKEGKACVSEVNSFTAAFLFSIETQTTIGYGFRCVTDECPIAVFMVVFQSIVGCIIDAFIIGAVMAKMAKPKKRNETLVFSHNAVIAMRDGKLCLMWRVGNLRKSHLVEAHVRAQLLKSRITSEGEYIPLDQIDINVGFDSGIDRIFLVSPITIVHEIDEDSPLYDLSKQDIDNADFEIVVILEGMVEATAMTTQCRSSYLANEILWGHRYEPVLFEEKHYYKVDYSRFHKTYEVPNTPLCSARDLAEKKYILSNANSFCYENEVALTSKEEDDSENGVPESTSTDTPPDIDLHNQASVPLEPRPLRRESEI
Outline: as §1

[11] = target: T8, Kv1.1 (Homo sapiens, UniProt Q09470); assay: cell-based; type: cell-based; conditions: 100% = no change, <100% = inhibition
T8 construct: host or cells: HEK293 or CHO
T8 sequence (Q09470 whole entry): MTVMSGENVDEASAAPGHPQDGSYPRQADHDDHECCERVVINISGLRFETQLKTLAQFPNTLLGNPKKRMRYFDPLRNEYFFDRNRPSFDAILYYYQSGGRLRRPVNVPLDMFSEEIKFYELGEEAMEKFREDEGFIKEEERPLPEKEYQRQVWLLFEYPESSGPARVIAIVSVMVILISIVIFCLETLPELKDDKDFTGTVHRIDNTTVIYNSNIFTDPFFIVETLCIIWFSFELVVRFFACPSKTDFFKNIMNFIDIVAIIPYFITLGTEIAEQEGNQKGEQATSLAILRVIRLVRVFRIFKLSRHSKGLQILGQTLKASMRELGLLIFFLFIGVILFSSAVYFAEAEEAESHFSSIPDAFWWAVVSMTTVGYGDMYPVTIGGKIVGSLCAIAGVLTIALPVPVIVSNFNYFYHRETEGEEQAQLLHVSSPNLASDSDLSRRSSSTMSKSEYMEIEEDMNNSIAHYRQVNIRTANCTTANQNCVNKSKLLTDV
Outline: as §1

[12] = target: T9, Kv1.2 (Homo sapiens, UniProt P16389); assay: cell-based; type: cell-based; conditions: 100% = no change, <100% = inhibition
T9 construct: host or cells: HEK293 or CHO
Outline: as §1

[13] = target: T10, Kv1.3 (Homo sapiens, UniProt P22001); assay: cell-based; type: cell-based; conditions: 100% = no change, <100% = inhibition
T10 construct: host or cells: HEK293 or CHO
Outline: as §1

[14] = target: T11, Nav1.7 (Homo sapiens, UniProt Q15858); assay: cell-based; type: cell-based; conditions: 100% = no change; for Activity of Nav1.7 with peptide, expressed as a percentage of the reference compound: peptide at 0.2 μM; for Activity of Nav1.7 with peptide (percentage of the reference compound): peptide at 20 μM
T11 construct: host or cells: HEK293 or CHO
T11 sequence (Q15858 whole entry): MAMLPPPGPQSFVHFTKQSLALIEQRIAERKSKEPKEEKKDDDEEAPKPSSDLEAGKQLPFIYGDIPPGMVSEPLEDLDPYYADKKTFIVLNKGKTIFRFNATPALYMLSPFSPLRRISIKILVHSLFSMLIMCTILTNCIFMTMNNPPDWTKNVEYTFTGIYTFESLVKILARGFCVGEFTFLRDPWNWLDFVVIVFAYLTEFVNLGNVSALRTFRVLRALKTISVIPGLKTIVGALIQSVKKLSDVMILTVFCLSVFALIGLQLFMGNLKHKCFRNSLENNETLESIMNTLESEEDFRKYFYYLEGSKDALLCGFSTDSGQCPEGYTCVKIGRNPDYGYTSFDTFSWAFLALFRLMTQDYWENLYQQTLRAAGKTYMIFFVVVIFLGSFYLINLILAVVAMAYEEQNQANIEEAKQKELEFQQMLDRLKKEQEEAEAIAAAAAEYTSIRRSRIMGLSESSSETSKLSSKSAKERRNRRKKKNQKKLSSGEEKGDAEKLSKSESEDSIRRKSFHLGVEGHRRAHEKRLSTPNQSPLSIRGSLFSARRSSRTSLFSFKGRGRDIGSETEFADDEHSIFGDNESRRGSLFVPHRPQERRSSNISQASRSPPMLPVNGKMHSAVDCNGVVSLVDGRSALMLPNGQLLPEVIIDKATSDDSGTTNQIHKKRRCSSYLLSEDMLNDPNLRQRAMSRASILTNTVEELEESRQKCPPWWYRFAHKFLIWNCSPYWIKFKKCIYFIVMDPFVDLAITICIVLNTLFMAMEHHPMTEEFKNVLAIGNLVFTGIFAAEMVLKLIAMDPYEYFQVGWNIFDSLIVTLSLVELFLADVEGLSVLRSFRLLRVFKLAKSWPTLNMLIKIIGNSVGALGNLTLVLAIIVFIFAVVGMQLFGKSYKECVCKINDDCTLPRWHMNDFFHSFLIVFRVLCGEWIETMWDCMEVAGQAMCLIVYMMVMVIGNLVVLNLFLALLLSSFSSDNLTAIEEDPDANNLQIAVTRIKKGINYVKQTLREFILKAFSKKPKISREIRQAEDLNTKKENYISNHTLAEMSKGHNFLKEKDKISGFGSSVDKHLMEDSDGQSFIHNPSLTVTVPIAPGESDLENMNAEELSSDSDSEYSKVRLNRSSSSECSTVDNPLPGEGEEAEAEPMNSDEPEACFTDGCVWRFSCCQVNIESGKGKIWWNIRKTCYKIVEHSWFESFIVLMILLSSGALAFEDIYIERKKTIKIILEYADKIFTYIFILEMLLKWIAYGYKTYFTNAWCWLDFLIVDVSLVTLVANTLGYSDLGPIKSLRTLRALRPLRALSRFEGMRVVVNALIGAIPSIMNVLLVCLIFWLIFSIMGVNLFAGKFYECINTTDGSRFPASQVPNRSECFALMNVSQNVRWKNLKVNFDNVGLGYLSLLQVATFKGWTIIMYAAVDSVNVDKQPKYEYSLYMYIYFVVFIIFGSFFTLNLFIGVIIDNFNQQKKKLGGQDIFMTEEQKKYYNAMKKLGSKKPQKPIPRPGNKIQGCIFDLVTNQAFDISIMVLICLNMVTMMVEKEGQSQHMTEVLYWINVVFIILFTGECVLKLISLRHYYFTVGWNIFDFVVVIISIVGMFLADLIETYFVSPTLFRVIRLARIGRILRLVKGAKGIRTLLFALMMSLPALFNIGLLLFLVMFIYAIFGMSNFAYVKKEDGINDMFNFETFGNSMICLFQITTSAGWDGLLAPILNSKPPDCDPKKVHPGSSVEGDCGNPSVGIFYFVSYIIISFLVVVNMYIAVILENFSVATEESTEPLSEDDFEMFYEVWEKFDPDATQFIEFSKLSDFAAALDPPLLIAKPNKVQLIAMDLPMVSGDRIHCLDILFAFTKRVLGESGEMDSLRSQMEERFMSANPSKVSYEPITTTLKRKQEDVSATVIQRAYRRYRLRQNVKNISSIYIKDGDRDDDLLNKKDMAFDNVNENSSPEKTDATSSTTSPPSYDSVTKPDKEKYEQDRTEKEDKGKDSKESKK

[15] = target: T12, NR2A (Homo sapiens, UniProt Q12879); assay: Ion channel panel (IonWorks Barracuda): NR2A; type: cell-based; conditions: 100% = no change, <100% = inhibition
T12 construct: host or cells: HEK293 or CHO
Outline: as §1

[16] = target: T13, NR2B (Homo sapiens, UniProt Q13224); assay: Ion channel panel (IonWorks Barracuda): NR2B; type: cell-based; conditions: 100% = no change, <100% = inhibition
T13 construct: host or cells: HEK293 or CHO
Outline: as §1

[17] = target: T14, TRPA1 (Homo sapiens, UniProt O75762); assay: Ion channel panel (IonWorks Barracuda): TRPA1; type: cell-based; conditions: 100% = no change, <100% = inhibition
T14 construct: host or cells: HEK293 or CHO
Outline: as §1

[18] = target: T15, TRPV1 (Homo sapiens, UniProt Q8NER1); assay: Ion channel panel (IonWorks Barracuda): TRPV1; type: cell-based; conditions: 100% = no change, <100% = inhibition
T15 construct: host or cells: HEK293 or CHO
Outline: as §1

[19] = first of two Nav1.5 columns (probably TP1)
[20] = second of two Nav1.5 columns (probably TP2)
[21] = first of two Nav1.7 columns (probably TP1)
[22] = second of two Nav1.7 columns (probably TP2)

## 30 (GSQVSTNKKCSNTSQCYKTCEKVVGVAAGKCMNGKCICYP) [compound 30]
[1]
  Activity of 5HT3a with peptide (percentage of the reference compound): 91%
  Activity of 5HT3a with peptide, expressed as a percentage of the reference compound: 71%
[2]; peptide at 0.2 μM
  Activity of a3b4 with peptide, expressed as a percentage of the reference compound: 91%
[2]; peptide at 20 μM
  Activity of a3b4 with peptide (percentage of the reference compound): 101%
[3]; peptide at 0.2 μM
  Activity of a4b2 with peptide, expressed as a percentage of the reference compound: 89%
[3]; peptide at 20 μM
  Activity of a4b2 with peptide (percentage of the reference compound): 92%
[4]; peptide at 0.2 μM
  Activity of Cav2.1 with peptide, expressed as a percentage of the reference compound: 111%
[4]; peptide at 20 μM
  Activity of Cav2.1 with peptide (percentage of the reference compound): 103%
[5]; peptide at 0.2 μM
  Activity of Cav2.2 with peptide, expressed as a percentage of the reference compound: 96%
[5]; peptide at 20 μM
  Activity of Cav2.2 with peptide (percentage of the reference compound): 101%
[6]; peptide at 0.2 μM
  Activity of Kv2.1 with peptide, expressed as a percentage of the reference compound: 107%
[6]; peptide at 20 μM
  Activity of Kv2.1 with peptide (percentage of the reference compound): 106%
[7]; peptide at 0.2 μM
  Activity of GABA with peptide, expressed as a percentage of the reference compound: 102%
[7]; peptide at 20 μM
  Activity of GABA with peptide (percentage of the reference compound): 114%
[8]; [19]
  Activity of Nav1.5 with peptide, expressed as a percentage of the reference compound: 105%
  Activity of Nav1.5 with peptide (percentage of the reference compound): 94%
[8]; [20]
  Activity of Nav1.5 with peptide, expressed as a percentage of the reference compound: 102%
  Activity of Nav1.5 with peptide (percentage of the reference compound): 96%
[9]; peptide at 0.2 μM
  Activity of hERG with peptide, expressed as a percentage of the reference compound: 95%
[9]; peptide at 20 μM
  Activity of hERG with peptide (percentage of the reference compound): 95%
[10]; peptide at 0.2 μM
  Activity of Kir2.1 with peptide, expressed as a percentage of the reference compound: 102%
[10]; peptide at 20 μM
  Activity of Kir2.1 with peptide (percentage of the reference compound): 93%
[11]; peptide at 0.2 μM
  Activity of Kv1.1 with peptide, expressed as a percentage of the reference compound: 98%
[11]; peptide at 20 μM
  Activity of Kv1.1 with peptide (percentage of the reference compound): 102%
[12]; peptide at 0.2 μM
  Activity of Kv1.2 with peptide, expressed as a percentage of the reference compound: 110%
[12]; peptide at 20 μM
  Activity of Kv1.2 with peptide (percentage of the reference compound): 92%
[13]; peptide at 0.2 μM
  Activity of Kv1.3 with peptide, expressed as a percentage of the reference compound: 89%
[13]; peptide at 20 μM
  Activity of Kv1.3 with peptide (percentage of the reference compound): 71%
[14]; [21]
  Activity of Nav1.7 with peptide, expressed as a percentage of the reference compound: 103%
  Activity of Nav1.7 with peptide (percentage of the reference compound): 84%
[14]; [22]
  Activity of Nav1.7 with peptide, expressed as a percentage of the reference compound: 125%
  Activity of Nav1.7 with peptide (percentage of the reference compound): 54%
[15]; peptide at 0.2 μM
  Activity of NR2A with peptide, expressed as a percentage of the reference compound: 111%
[15]; peptide at 20 μM
  Activity of NR2A with peptide (percentage of the reference compound): 98%
[16]; peptide at 0.2 μM
  Activity of NR2B with peptide, expressed as a percentage of the reference compound: 92%
[16]; peptide at 20 μM
  Activity of NR2B with peptide (percentage of the reference compound): 88%
[17]; peptide at 0.2 μM
  Activity of TRPA1 with peptide, expressed as a percentage of the reference compound: 118%
[17]; peptide at 20 μM
  Activity of TRPA1 with peptide (percentage of the reference compound): 111%
[18]; peptide at 0.2 μM
  Activity of TRPV1 with peptide, expressed as a percentage of the reference compound: 107%
[18]; peptide at 20 μM
  Activity of TRPV1 with peptide (percentage of the reference compound): 84%
